Measurements taken from paper PMC11794253.

What was measured:
[1] = target: human neonatal Fc receptor (hFcRn) (human) (UniProt P55899); assay: SPR
[2] = target: His-tagged FcγRIIIa/CD16a extracellular domain (amino acids 17-208), V158 allotype (UniProt P08637); assay: SPR
UniProt P08637, sequence (P08637 17-208 F176V): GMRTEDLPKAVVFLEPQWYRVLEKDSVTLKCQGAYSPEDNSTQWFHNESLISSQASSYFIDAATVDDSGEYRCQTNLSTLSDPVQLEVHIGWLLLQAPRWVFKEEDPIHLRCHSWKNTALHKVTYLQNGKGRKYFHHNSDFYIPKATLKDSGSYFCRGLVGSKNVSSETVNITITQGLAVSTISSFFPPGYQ

kon [1]: 389000 M⁻¹ s⁻¹
Kd ([1]; KD from steady-state analysis): 344 nM
Kd ([1]; kinetic 1:1 binding model fit): 196 nM
kon [2]: 306000 M⁻¹ s⁻¹
Kd ([2]; from kinetic rate constants): 127 nM
Kd ([2]; steady-state analysis): 259 nM
B1: COVA2-15 IgG1, wild type, produced in N. benthamiana ΔXT/FT (antibody, V domains shown)
VH: QVQLLESGGGLVQPGGSLRLSCAASGFTFSSYAMSWVRQAPGKGLEWASAISGSGGSTYYADSVEGRFTISRDNSKNTLYLQMNSLRAEDTAVYYCAKDTGYCGDDCYIKLIRGGPDYWGQGTLVTVSS
VL: DIVMTQSPLSLPVTLGQPASISCRSSQSLVYSDGNTFLNWFQQRPGQSPRRLIYQVSNRDSGVPDRFSGSGSGTDFTLKISRVEAEDVGVYYCMQGTHWPRTFGQGTKLEIK
